Experimental data as given in publication PMC6630525.

Key:
[1] = molecular target: full-length Arabidopsis thaliana NAP1-Related Protein 2 (AtNRP2-His) (Arabidopsis thaliana) (UniProt Q8LC68); assay: native gel or EMSA; native polyacrylamide gel; increasing amounts of H2A-H2B dimer titrated into a constant amount (5 µM) of AtNRP1/2 proteins
[2] = molecular target: full-length Arabidopsis thaliana NAP1-Related Protein 1 (AtNRP1-His) (Arabidopsis thaliana) (UniProt Q9CA59); assay: as above
[3] = molecular target: full-length Arabidopsis thaliana NAP1-Related Protein 2 (AtNRP2-His) (Arabidopsis thaliana) (UniProt Q8LC68); assay: ITC; H2A-H2B (200-210 µM) in the syringe, AtNRP1/AtNRP2 (20 µM) in the cell; 25 °C; 20 mM PIPES pH 7.4, 300 mM NaCl; sequential binding site model
[4] = molecular target: full-length Arabidopsis thaliana NAP1-Related Protein 1 (AtNRP1-His) (Arabidopsis thaliana) (UniProt Q9CA59); assay: as above

Sequence of Arabidopsis thaliana histone H2A-H2B dimer (Q9LD28 whole entry): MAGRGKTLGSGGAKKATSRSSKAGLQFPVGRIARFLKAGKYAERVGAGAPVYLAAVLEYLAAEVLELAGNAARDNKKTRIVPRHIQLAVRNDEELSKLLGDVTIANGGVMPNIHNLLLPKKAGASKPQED
Sequence of Arabidopsis thaliana histone H2A-H2B dimer (Q9LQQ4 whole entry): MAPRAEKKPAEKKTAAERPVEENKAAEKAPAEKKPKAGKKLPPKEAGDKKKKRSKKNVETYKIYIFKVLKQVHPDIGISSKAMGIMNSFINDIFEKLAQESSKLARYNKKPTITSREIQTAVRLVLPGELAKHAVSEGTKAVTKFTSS
Sequence of full-length Arabidopsis thaliana NAP1-Related Protein 1 (AtNRP1-His) (Arabidopsis thaliana) (Q9CA59 whole entry): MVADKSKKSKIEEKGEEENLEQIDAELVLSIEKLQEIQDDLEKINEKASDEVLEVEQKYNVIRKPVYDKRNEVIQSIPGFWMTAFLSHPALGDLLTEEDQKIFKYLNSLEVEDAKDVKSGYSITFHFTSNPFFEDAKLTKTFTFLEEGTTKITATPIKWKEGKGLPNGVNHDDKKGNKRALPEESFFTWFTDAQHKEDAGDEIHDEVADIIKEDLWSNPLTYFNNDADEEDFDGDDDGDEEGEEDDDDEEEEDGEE
Sequence of full-length Arabidopsis thaliana NAP1-Related Protein 2 (AtNRP2-His) (Arabidopsis thaliana) (Q8LC68 other isoform, or with tags, fused parts or gaps): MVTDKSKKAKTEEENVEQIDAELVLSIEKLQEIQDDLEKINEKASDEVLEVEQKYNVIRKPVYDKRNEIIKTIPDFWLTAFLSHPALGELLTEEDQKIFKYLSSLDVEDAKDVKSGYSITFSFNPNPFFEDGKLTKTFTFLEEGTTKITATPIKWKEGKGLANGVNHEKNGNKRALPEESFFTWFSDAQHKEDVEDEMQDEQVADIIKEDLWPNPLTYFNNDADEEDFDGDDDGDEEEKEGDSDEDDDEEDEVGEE

“Arabidopsis thaliana histone H2A-H2B dimer (from UniProt Q9LD28 1-130; Q9LQQ4 1-148) (complex)” was tested. Which stoichiometry N (H2A-H2B dimers per NRP dimer) [1] did it give?
Its stoichiometry N (H2A-H2B dimers per NRP dimer) is 2.

And the stoichiometry N (H2A-H2B dimers per NRP dimer) [2]?
The stoichiometry N (H2A-H2B dimers per NRP dimer) was 2.

What about the Kd1 (sequential binding model, first site) [3] of the same substance?
Its Kd1 (sequential binding model, first site) is 39.6 nM.

And the Kd2 (sequential binding model, second site) [3]?
The Kd2 (sequential binding model, second site) was 1 µM.

And the dH1 (sequential binding model, first site) [3]?
Its dH1 (sequential binding model, first site) is 7.28 kcal/mol.

And the dH2 (sequential binding model, second site) [3]?
The dH2 (sequential binding model, second site) was 1.33 kcal/mol.

And the Kd1 (sequential binding model, first site) [4]?
The Kd1 (sequential binding model, first site) was 130 nM.

And the Kd2 (sequential binding model, second site) [4]?
Its Kd2 (sequential binding model, second site) is 2.4 µM.

What about the dH1 (sequential binding model, first site) [4] of the same substance?
The dH1 (sequential binding model, first site) was 8.51 kcal/mol.

What about the dH2 (sequential binding model, second site) [4] of the same substance?
Its dH2 (sequential binding model, second site) is 6 kcal/mol.
